2 molecules from publication PMC10234869 can be followed below.

In experiment [1] the target is Signal Peptide Peptidase-like 2c, C-terminally myc-tagged (SPPL2c-myc) (murine) (UniProt A2A6C4).
Experiment [2] has as its target Frey1 CD74-Lum (Frey1-3xFLAG with its luminal domain replaced by the first 70 aa of the luminal segment of CD74) (murine) (UniProt Q8CF31). The experiment is described as follows: co-IP; anti-FLAG M2 and Protein G agarose from 0.5% CHAPSO lysates (1 mg in 500 µl, overnight, 4 °C) of transiently transfected HEK293T cells; four washes with CHAPSO buffer; eluates blotted; co-precipitated SPPL2c divided by the precipitated Frey1 or PLN variant and normalised to wild-type Frey1.

For “PLN PRSAG (3xFLAG-PLN with the Frey1 residues P11, R12, S16, A25 and G26 at the corresponding positions of its membrane anchor) (from UniProt P61014 1-52)”, in experiment [1], the inhibition of SPPL2c-mediated processing of HA-RAMP4-2 in HEK cells (Fig. 4H, I) was 50%.

B1: Signal Peptide Peptidase-like 2c, C-terminally myc-tagged (SPPL2c-myc) (enzyme)
chain: EYGLVRVVSKNWSKDYCVLYSSDYVNLPRDLHHAPLLSLHDGTKTPWCPDEDSFHQAQDSSPRQRPLHQTTTMVTRGNCSFYAKGWLAQDQGAQGLLIVSRARNQQCSDTISKPQDPSKPWPALTIPVAVLRYTDMLDIVSHTYGDTDVRVAMFAPLEPVTDYNMAIIFILAVGTVAAGGYWAGLMEANKLQRRQAQRGGGLGGHNQQQTVAAERSQRAWEDDDFEDAPMDFTPAMTGAVVTMSCSIMILLYFFYDCFVYVMIGIFSLGASTGLYSCLAPILCHLPLWRYQWVLPGQRVSVTWPLLLLAGLCAMVTVLWVIHRNEDHWAWLLQDTLGVAYCLFVLRRVRLPTFKNCTLFLLALLAFDVFFVFITPLFTKTGESIMVEVASGPADSSSHERLPMVLKVPRLSFSALTLCNQPFSILGFGDIVVPGFLVAYCHRFDMQVQSRQVYYMACTVAYAVGLLVTFVAMILMQMGQPALLYLVSSTLLTSLAVATCRQEFTLFWTGQGRAKIPAEPVAQPCIASAVGSKMKLEDAKDSRTTNRFEQAVDGESGDLESSTGDDMAEMVTLSEDEATSPEGHSESSEGWSDTNLDPNELPSGSPMALEAMLIPLIQPIPHPSELGHIRTQSRVHDSSLPWMGLHKRKGLKVKKSMSAQAPL
As for B1, the co-precipitated SPPL2c, percent of wild-type Frey1, normalised to the expression level in experiment [2] stood at 20%.
